Data reported in US10718784B2, “Mitochondrial preproteins as markers for Alzheimer's disease” (Albert-Ludwigs-Universität Freiburg, priority 2014, dated 2020).

Assays:
Cym1 = target: T1, Cym1 (Saccharomyces cerevisiae, UniProt P32898); assay: Peptide degradation assay in soluble mitochondrial extracts; assay type: biochemical, yeast
T1 construct: endogenous in cells; host or cells: soluble extract of wild-type S. cerevisiae mitochondria (cym1Δ extract as control)
T1 sequence (P32898 17-989): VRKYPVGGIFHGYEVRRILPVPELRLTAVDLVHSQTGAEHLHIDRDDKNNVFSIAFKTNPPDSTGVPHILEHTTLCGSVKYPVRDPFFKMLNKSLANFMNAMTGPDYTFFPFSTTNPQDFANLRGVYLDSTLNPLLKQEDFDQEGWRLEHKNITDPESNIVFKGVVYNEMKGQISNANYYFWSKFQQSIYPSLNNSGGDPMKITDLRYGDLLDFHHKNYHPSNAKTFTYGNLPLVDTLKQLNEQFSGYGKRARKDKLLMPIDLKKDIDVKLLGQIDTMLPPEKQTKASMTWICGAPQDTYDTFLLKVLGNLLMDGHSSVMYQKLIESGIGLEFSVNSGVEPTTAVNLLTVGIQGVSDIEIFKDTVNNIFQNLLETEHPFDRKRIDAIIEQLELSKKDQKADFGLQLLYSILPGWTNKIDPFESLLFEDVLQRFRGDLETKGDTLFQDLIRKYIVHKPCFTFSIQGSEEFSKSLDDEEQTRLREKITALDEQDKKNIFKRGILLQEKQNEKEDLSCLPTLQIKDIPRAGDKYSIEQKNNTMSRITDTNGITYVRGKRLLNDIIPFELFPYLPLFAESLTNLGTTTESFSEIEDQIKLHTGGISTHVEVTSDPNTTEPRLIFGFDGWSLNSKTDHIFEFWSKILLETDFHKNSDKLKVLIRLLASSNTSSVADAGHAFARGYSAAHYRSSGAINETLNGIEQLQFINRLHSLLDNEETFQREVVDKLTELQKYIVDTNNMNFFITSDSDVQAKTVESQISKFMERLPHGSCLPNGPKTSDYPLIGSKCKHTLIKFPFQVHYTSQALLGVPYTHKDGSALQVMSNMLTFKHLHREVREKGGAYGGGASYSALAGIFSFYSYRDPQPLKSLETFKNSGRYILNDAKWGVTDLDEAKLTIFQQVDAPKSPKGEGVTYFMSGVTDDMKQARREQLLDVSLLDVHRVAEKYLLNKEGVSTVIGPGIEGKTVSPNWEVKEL
Procedure: (§1) Isolated mitochondria from yeast strains grown under respiratory conditions were washed with SEM buffer, re-isolated and resuspended in reaction buffer (250 mM sucrose, 10 mM MOPS/KOH, pH 7.2, 80 mM KCl, 5 mM MgCl2, 5 mM KH2PO4) to a concentration of 3 μg/μl. Mitochondria were subjected to sonication (five times 30 s with 30 s breaks on ice, Sonifier250, Branson) followed by centrifugation at 100,000×g for 45 min at 4° C. The obtained supernatant was used for processing and degradation experiments. 0.5 μl of radiolabelled precursor protein and/or various peptides in different concentrations were added to 9 μl of yeast soluble mitochondrial extracts. Reactions were stopped by addition of 4× Laemmli buffer (8% (w/v) SDS, 0.08% (w/v) bromophenol blue, 40% (v/v) glycerol, 240 mM Tris/HCl, pH 6.8) containing 5% (v/v) β-mercaptoethanol and analyzed by SDS-PAGE followed by autoradiography and immunodecoration. Radiolabelled precursor proteins were synthesized with the transcription/translation rabbit reticulate lysate system (Promega) in the presence of ^35S-methionine. Chemical amounts of Cym1 and control protein (Oct1) were synthesized in vitro using the RTS wheat germ system (5 PRIME). 0.5 μl of cell-free translation product was used in the processing assays.

Purified yeast MPP = target: T2, Purified yeast MPP (Saccharomyces cerevisiae, UniProt P10507+P11914); assay: MPP activity assay: processing of [35S]F1β precursor by purified MPP; assay type: biochemical, S. cerevisiae; details: radiolabelled F1β precursor, increasing peptide concentrations
T2 construct: poly-histidine (N); made in house; host or cells: E. coli BL21, plasmid pVG18
Procedure: E. coli BL21 cells were transformed with plasmid pVG18 (32) that enables the transcription of a single mRNA encoding both β- (with N-terminal poly-histidine tag) and α-MPP subunits (Mas1 and Mas2) from S. cerevisiae. Cell cultures were grown in LB medium (10 g/l tryptone, 5 g/l yeast extract, 10 g/l NaCl) containing 100 μg/ml ampicillin at 37° C. to an OD600 of 0.6. Expression was induced by addition of 1 mM IPTG (Isopropyl β-D-1-thiogalactopyranoside, Formedium) for 4 h. Cells were harvested and snap-frozen in liquid nitrogen. Pellets were resuspended in binding buffer (20 mM Na3PO4, 200 mM NaCl, 20 mM imidazole, pH 7.4) containing 1 mg/ml lysozyme (Sigma) and 10 μg/ml DNaseI (Sigma) and incubated for 1 h at 4° C. for cell lysis. The cell extract was centrifuged at 4000×g to remove unbroken cells. The supernatant was further centrifuged at 100,000×g for 30 min at 4° C. The obtained supernatant was incubated with Ni-NTA resin (Qiagen) for 3 h at 4° C. The resin was washed four times with binding buffer. Bound proteins were eluted with Elution buffer (20 mM Na3PO4, 200 mM NaCl, 200 mM imidazole, pH 7.4). […]
Purified yeast MPP (0.15 μg protein) was incubated in processing buffer (10 mM HEPES/KOH, pH 7.4, 0.1 mM MnCl2, 1 mM DTT, 0.1 mg/ml BSA) for 15 min at 30° C. […] The samples were analyzed by SDS-PAGE followed by autoradiography. Bands were quantified using the Multi Gauge software (Fuji Film). […]

MPP = target: T3, MPP (Saccharomyces cerevisiae, UniProt P10507+P11914); assay: In vitro processing of [35S]Sod2 precursor in yeast soluble mitochondrial extracts; assay type: biochemical
T3 construct: endogenous in cells; host or cells: soluble extract of mitochondria isolated from S. cerevisiae strains (wild-type, cym1Δ)
T3 sequence (P10507 21-462): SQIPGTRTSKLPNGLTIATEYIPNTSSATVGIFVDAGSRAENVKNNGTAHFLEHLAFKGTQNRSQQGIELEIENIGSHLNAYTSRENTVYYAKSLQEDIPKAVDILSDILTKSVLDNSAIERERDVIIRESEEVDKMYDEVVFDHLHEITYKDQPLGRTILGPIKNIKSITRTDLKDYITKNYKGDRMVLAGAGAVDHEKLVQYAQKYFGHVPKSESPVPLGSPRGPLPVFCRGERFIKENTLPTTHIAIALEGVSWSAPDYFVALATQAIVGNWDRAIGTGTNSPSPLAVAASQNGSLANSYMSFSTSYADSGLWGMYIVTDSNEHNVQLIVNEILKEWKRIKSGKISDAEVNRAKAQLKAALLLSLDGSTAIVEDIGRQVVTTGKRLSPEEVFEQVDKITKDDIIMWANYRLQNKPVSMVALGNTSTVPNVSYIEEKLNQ
T3 sequence (P11914 14-482): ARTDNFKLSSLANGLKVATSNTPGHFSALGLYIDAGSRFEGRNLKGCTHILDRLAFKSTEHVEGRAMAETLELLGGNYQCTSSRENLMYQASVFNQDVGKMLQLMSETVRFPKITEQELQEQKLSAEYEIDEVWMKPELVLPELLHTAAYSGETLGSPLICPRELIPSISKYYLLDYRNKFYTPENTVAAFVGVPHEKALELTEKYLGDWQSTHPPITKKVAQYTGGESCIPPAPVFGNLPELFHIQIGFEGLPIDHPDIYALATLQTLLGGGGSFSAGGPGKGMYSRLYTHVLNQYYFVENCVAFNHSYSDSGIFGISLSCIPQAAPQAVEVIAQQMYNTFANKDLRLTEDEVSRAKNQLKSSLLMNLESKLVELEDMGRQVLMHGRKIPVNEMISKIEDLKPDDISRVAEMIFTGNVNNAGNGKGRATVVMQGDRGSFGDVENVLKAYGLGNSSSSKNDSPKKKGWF
Procedure: as §1

Oct1 = target: T4, Oct1 (Saccharomyces cerevisiae, UniProt P35999); assay: In vitro processing of [35S]Cox4 precursor in yeast mitochondrial extract in the presence of octapeptides; assay type: biochemical; details: cym1Δ mitochondrial extract
T4 construct: endogenous in cells; host or cells: soluble extract of wild-type and cym1Δ S. cerevisiae mitochondria
T4 sequence (P35999 38-772): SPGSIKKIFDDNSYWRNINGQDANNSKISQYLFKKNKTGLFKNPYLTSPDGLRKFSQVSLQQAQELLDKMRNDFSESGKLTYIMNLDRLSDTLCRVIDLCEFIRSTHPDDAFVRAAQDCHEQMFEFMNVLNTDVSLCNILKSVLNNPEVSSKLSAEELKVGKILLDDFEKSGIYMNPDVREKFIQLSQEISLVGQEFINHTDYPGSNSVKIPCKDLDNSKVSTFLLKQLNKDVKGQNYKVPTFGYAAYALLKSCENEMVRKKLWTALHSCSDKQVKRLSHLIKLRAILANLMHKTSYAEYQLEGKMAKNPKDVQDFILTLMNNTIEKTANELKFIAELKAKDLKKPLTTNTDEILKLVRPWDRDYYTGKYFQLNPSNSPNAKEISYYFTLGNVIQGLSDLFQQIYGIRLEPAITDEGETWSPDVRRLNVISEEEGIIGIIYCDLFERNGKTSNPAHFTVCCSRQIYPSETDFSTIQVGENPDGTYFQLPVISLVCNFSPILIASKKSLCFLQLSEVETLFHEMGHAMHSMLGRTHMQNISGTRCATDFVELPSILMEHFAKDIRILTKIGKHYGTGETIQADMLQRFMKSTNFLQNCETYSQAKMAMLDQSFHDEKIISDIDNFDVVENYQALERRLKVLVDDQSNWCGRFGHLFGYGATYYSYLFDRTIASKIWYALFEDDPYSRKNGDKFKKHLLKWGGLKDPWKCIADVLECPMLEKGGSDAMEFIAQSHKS
Procedure: as §1

Aβ^scrambled: scrambled Aβ peptide KVKGLIDGDHIGDLVYEFMDSNSAIFREGVGAGHVHVAQVEF (SEQ ID No.: 19)
Effect on Cox4 presequence peptide degradation (Cym1; WT soluble mitochondrial extract, 10 μM Cox4 presequence peptide in each reaction): not

Cox4^preseq.: typical presequence peptide MLSLRQSIRFFKPATRTLCSSRYLL (SEQ ID No.: 15)
Processing activity of purified MPP on F1β precursor in the presence of peptide (Purified yeast MPP): able to inhibit purified MPP
In vitro processing of radiolabelled Sod2 precursor by MPP in the presence of presequence peptide (MPP; cym1Δ mitochondrial extract (absence of Cym1), 10 μM Cox4 presequence peptide): efficiently blocked
Degradation of the peptide in wild-type mitochondrial extract (Cym1; wild-type (WT) extract, peptide 10 μM): Rapid degradation

octapeptides: octapeptide derived from the Oct1 substrate Sdh1, FTSSALVR (SEQ ID No.: 16), EZ Biolab
Oct1-dependent processing step of Cox4 precursor in the presence of octapeptides (Oct1): specific impairment of the Oct1-dependent processing step
Processing activity of purified MPP on F1β precursor in the presence of peptide (Purified yeast MPP): not affected

B1: cell-free translated Cym1 protein: yeast PreP homolog Cym1 synthesized in vitro using the RTS wheat germ system (protein)
chain: MLRFQRFASSYAQAQAVRKYPVGGIFHGYEVRRILPVPELRLTAVDLVHSQTGAEHLHIDRDDKNNVFSIAFKTNPPDSTGVPHILEHTTLCGSVKYPVRDPFFKMLNKSLANFMNAMTGPDYTFFPFSTTNPQDFANLRGVYLDSTLNPLLKQEDFDQEGWRLEHKNITDPESNIVFKGVVYNEMKGQISNANYYFWSKFQQSIYPSLNNSGGDPMKITDLRYGDLLDFHHKNYHPSNAKTFTYGNLPLVDTLKQLNEQFSGYGKRARKDKLLMPIDLKKDIDVKLLGQIDTMLPPEKQTKASMTWICGAPQDTYDTFLLKVLGNLLMDGHSSVMYQKLIESGIGLEFSVNSGVEPTTAVNLLTVGIQGVSDIEIFKDTVNNIFQNLLETEHPFDRKRIDAIIEQLELSKKDQKADFGLQLLYSILPGWTNKIDPFESLLFEDVLQRFRGDLETKGDTLFQDLIRKYIVHKPCFTFSIQGSEEFSKSLDDEEQTRLREKITALDEQDKKNIFKRGILLQEKQNEKEDLSCLPTLQIKDIPRAGDKYSIEQKNNTMSRITDTNGITYVRGKRLLNDIIPFELFPYLPLFAESLTNLGTTTESFSEIEDQIKLHTGGISTHVEVTSDPNTTEPRLIFGFDGWSLNSKTDHIFEFWSKILLETDFHKNSDKLKVLIRLLASSNTSSVADAGHAFARGYSAAHYRSSGAINETLNGIEQLQFINRLHSLLDNEETFQREVVDKLTELQKYIVDTNNMNFFITSDSDVQAKTVESQISKFMERLPHGSCLPNGPKTSDYPLIGSKCKHTLIKFPFQVHYTSQALLGVPYTHKDGSALQVMSNMLTFKHLHREVREKGGAYGGGASYSALAGIFSFYSYRDPQPLKSLETFKNSGRYILNDAKWGVTDLDEAKLTIFQQVDAPKSPKGEGVTYFMSGVTDDMKQARREQLLDVSLLDVHRVAEKYLLNKEGVSTVIGPGIEGKTVSPNWEVKEL
MPP processing activity (Sod2 precursor) after addition of Cym1 protein (MPP; cym1Δ mitochondrial extract): could be restored
